{"source": "patent US11780907B2", "about": "“Human antibodies to influenza hemagglutinin” (Regeneron Pharmaceuticals, Inc., priority 2018, dated 2023)", "key": {"[1]": {"test_system": "A/Aichi/02/1968-X31 (H3N2)", "set-up": "species or system BALB/c mice", "details": "mouse, in vivo"}, "[2]": {"test_system": "A/Victoria/316/2011 (H3N2)", "assay_type": "cell-based, influenza A virus"}, "[3]": {"test_system": "A/Aichi/02/1968-PR8-X31(H3N2)-infected MDCKs", "assay_type": "cell-based, canine"}, "[4]": {"test_system": "group 1 strains (HA)", "assay_type": "binding, influenza A virus"}, "[5]": {"biological_target": "A/Shanghai/01/2013 (H7) HA foldon protein", "assay_type": "binding, influenza A virus", "details": "37° C."}, "[6]": {"test_system": "A/Aichi/02/1968-X31 (H3N2)", "set-up": "species or system BALB/c mice", "details": "mouse, in vivo, iv, 15 mg/kg"}, "[7]": {"biological_target": "A/Hiroshima/52/2005 (H3) HA foldon protein", "assay_type": "binding, influenza A virus"}, "[8]": {"test_system": "A/Shanghai/01/2013-PR8 (H7N9)", "assay_type": "cell-based, influenza A virus", "details": "read-out: Neutralization activity IC50"}, "[9]": {"test_system": "A/Aichi/02/1968-PR8-X31 (H3N2)", "assay_type": "cell-based, influenza A virus", "details": "read-out: Neutralization activity IC50"}, "[10]": {"test_system": "A/Philippines/01/1982 (H3N2)", "assay_type": "cell-based, influenza A virus", "details": "read-out: Neutralization activity IC50"}}, "note": "“Also recorded” adds a separate entry of the source. Read-outs that look alike come from different tables or passages of the source.", "data": [{"molecule": "CCOC(=O)C1=C[C@@H](OC(CC)CC)[C@H](NC(C)=O)[C@@H](N)C1", "note": "[oseltamivir, reference compound]", "values": [{"measurement": "survival", "setting": "[1]", "result": 80, "unit": "%"}]}, {"molecule": "H1H14611N2: fully human anti-influenza A group 2 HA monoclonal antibody, HCVR/LCVR SEQ ID NOs: 2/10 (antibody, V domains shown) VH: EVQLVESGGGLVKPGGSLRLSCAASGFTFSGFSMNWVRQVPGKGLEWVSSISTSGNYMYYADSVKGRFTISRDNAKKSFSLQMNSLRAEDSAIYYCARGGGYNWNLFDYWGQGSLVTVSS VL: EIVLTQSPGTLSLSPGERATLSCRASQSLNSNYLAWYQQKPGQAPRLLIYGASSRATGIPDRFSGSGSGTDFTLTITRLESEDFAVYYCQQYGNSPLTFGGGTKVEIK", "values": [{"measurement": "lowest concentration of mAb where no RBC hemagglutination was detected", "setting": "[2]", "result": 41.7, "unit": "nM"}, {"measurement": "maximum lysis (percent specific lysis)", "setting": "[3]", "result": 78.3, "unit": "%"}, {"measurement": "binding to group 1 strains", "setting": "[4]", "result": "did not bind"}, {"measurement": "effect when dosed in combination with oseltamivir", "setting": "[1]", "result": "additive protective effect; also recorded: additive efficacy"}, {"measurement": "survival", "setting": "[1]; 7 mg/kg", "result": 80, "unit": "%"}, {"measurement": "survival", "setting": "[1]; 15 mg/kg", "result": 100, "unit": "%"}, {"measurement": "KD", "setting": "[5]", "result": "IC^§"}, {"measurement": "survival", "setting": "[6]", "result": "One hundred percent survival; also recorded: survived; also recorded: complete protection"}, {"measurement": "Kd", "setting": "[7]", "result": 8.22, "unit": "nM"}]}, {"molecule": "H1H14612N2: fully human anti-influenza A group 2 HA monoclonal antibody, HCVR/LCVR SEQ ID NOs: 18/26 (antibody, V domains shown) VH: EVQLVESGGGLVKPGGSLRLSCAASGFSFSGFSMNWVRQAPGKGLEWVSSISTSGNYMYYADSVKGRFTISRDNAKKSFSLQMNSLRAEDSAIYYCARGGGYNWNLFDYWGQGSLVTVSS VL: EIVLTQSPGTLSLSPGERATLSCRASQSLNSNYLAWYQQKPGQAPRLLIYGASSRATGIPDRFSGSGSGADFTLTISRLESEDFAVYYCQQYGNSPLTFGGGTKVEIK", "values": [{"measurement": "lowest concentration of mAb where no RBC hemagglutination was detected", "setting": "[2]", "result": 166.7, "unit": "nM"}, {"measurement": "maximum lysis (percent specific lysis)", "setting": "[3]", "result": 86.3, "unit": "%"}, {"measurement": "EC50", "setting": "[3]; read-out: CDC EC50", "result": 126, "unit": "nM"}, {"measurement": "IC50", "setting": "[8]", "result": "> 6670", "unit": "nM"}, {"measurement": "survival", "setting": "[6]", "result": "One hundred percent survival; also recorded: survived; also recorded: complete protection"}, {"measurement": "IC50", "setting": "[9]", "result": 5.7, "unit": "nM"}, {"measurement": "IC50", "setting": "[10]", "result": 37.6, "unit": "nM"}]}]}
